Some results are limits rather than exact numbers.

Assay [1] concerns the target HLA-A*02:01. Description: IEDB peptide-MHC binding, purified MHC/competitive/fluorescence; filed as Kd, often an IC50 or EC50 that approximates it; ≥ and ≤ were set here for values at or beyond the usual limits of such assays. The following applies: source organism: Entamoeba histolytica.
In a further assay the target is HLA-B*15:01. Description: IEDB peptide-MHC binding, purified MHC/competitive/radioactivity; filed as Kd, often an IC50 or EC50 that approximates it; ≥ and ≤ were set here for values at or beyond the usual limits of such assays.
For assay [2], the target named is HLA-A*02:01. Description: IEDB peptide-MHC binding, purified MHC/competitive/fluorescence; ≥ and ≤ were set here for values at or beyond the usual limits of such assays.
The target in a further assay is HLA-A*32:01. Put plainly: IEDB peptide-MHC binding, purified MHC/competitive/radioactivity; filed as Kd, often an IC50 or EC50 that approximates it; ≥ and ≤ were set here for values at or beyond the usual limits of such assays.
The target of the next assay is HLA-A*01:01. Described as above.
In another assay the target is HLA-B*51:01. The description is as above.
For a further assay, the target named is HLA-B*07:02. Put plainly: IEDB peptide-MHC binding, purified MHC/direct/fluorescence; filed as Kd, often an IC50 or EC50 that approximates it; ≥ and ≤ were set here for values at or beyond the usual limits of such assays. The following applies: source organism: Mus musculus.
Another assay has as its target HLA-A*26:01. Put plainly: IEDB peptide-MHC binding, purified MHC/competitive/radioactivity; filed as Kd, often an IC50 or EC50 that approximates it; ≥ and ≤ were set here for values at or beyond the usual limits of such assays.
The next assay deals with HLA-A*29:02. Described as above.
The target in a further assay is HLA-A*30:01. The description is as above.
Another assay deals with HLA-A*30:02. Described as above.
The target of the next assay is HLA-A*24:02. The description is as above. The following applies: source organism: Dengue virus 4 Philippines/H241/1956.
Setting [3] is: source organism: Vaccinia virus WR.
[4] abbreviates: source organism: Dengue virus 4 Philippines/H241/1956.
Setting [5] is: source organism: Zaire ebolavirus.
[6] abbreviates: source organism: Mammarenavirus guanaritoense.
Where [7] appears, read: source organism: Dengue virus 1 Brazil/97-11/1997.
[8] abbreviates: source organism: Lassa virus Josiah.
The mark [9] stands for this setting: source organism: Mammarenavirus brazilense.

As to DLKPENILL, the Kd (as a rule, the equilibrium constant for the complex coming apart) with HLA-A*02:01 [1] was at least 20 µM. For the sequence KQSNTNKHM, the Kd with HLA-B*15:01 (setting [3]) came to 27.8 nM. Take LMHAPAFET: in the assay with HLA-A*02:01 [2] (source organism: Human alphaherpesvirus 1 strain 17), the concentration for half-maximal inhibition (IC50) (as a rule, the concentration that inhibits the measured activity by half) stood at 2 µM.

In the case of ELNYVLWEGG, in the assay with HLA-A*32:01 (setting [4]), the dissociation constant (Kd) came to 9340 nM. Regarding RSFTFKEGF, in the assay with HLA-B*15:01 (setting [3]), the Kd was 34.8 nM.

Sequence RGTTFAEGV yielded an IC50 with HLA-A*02:01 [2] (setting [5]) of 9.3 µM. KTETTILDV: the equilibrium dissociation constant (Kd) in the assay with HLA-A*01:01 (setting [4]) came to 6200 nM.

Turning to LPLPWTAGA, the dissociation constant (Kd) with HLA-B*51:01 (source organism: Dengue virus 4 Dominica/814669/1981) amounted to 2830 nM. Take RAWDPQPAM: in the assay with HLA-B*07:02, the Kd amounted to 36.4 nM.

For the sequence WIAASIILEF, in the assay with HLA-B*15:01 (source organism: Dengue virus 2 Jamaica/1409/1983), the dissociation constant (Kd) turned out to be 6.22 nM.

As to VFIWFIFHF, the dissociation constant (Kd) in the assay with HLA-B*15:01 (source organism: Vaccinia virus) was found to be 642 nM. Regarding RTIFNFHLI, the dissociation constant Kd in the assay with HLA-A*32:01 (setting [3]) turned out to be 2.09 nM. With GMYCRCSHG, the dissociation constant (Kd) with HLA-B*15:01 (setting [3]) is 216 nM. For the sequence IMAKNEVFCV, in the assay with HLA-A*02:01 [2] (source organism: Hepatitis C virus genotype 1), the IC50 was found to be 5 µM. In the assay with HLA-A*02:01 [2] (setting [3]), LVSKFMSNG gave an IC50 of at least 201 µM. Regarding KMSILGVSI, the dissociation constant Kd with HLA-A*32:01 (setting [3]) was 2.36 nM.

FLWVIILFQ showed an IC50 with HLA-A*02:01 [2] (setting [5]) of 12.7 µM. In the case of STGNYVHCF, the Kd is 1300 nM with HLA-A*01:01 (setting [6]); at least 69.2 µM in the assay with HLA-A*26:01 (setting [6]); at least 35.9 µM with HLA-A*29:02 (setting [6]); 2.74 µM with HLA-A*30:01 (setting [6]); at least 20300 nM with HLA-A*30:02 (setting [6]); 12100 nM with HLA-A*32:01 (setting [6]). Turning to GAVKYLEGH, in the assay with HLA-A*02:01 [2] (setting [5]), the IC50 was at least 521 µM. As to SIPATLFVWY, the dissociation constant Kd was at least 20500 nM with HLA-A*01:01 (setting [7]) and 0.128 µM with HLA-A*26:01 (setting [7]). On to GVKRLEELL, for which the IC50 with HLA-A*02:01 [2] (setting [5]) was found to be 49.2 µM.

As for LTFNFTPKI, the Kd with HLA-A*32:01 (setting [3]) was 110 nM. For the sequence AKLTEAITA, in the assay with HLA-A*02:01 [2] (setting [5]), the IC50 amounted to 28.6 µM. For the sequence FTPEAKNSTF, the Kd in the assay with HLA-A*24:02 was determined as 3020 nM; with HLA-A*26:01 (setting [4]), 0.653 µM. Regarding RFSTSLLFL, the dissociation constant Kd in the assay with HLA-A*24:02 is 77.1 nM. Consider HLMFYTLPI, for which the equilibrium dissociation constant (Kd) in the assay with HLA-A*32:01 (setting [3]) was found to be 0.177 nM.

Take SSGCYIHFF: the Kd in the assay with HLA-A*01:01 (setting [8]) was 195 nM; with HLA-A*26:01 (setting [8]), at least 64.1 µM; with HLA-A*29:02 (setting [8]), at least 10 µM; with HLA-A*30:01 (setting [8]), 6.86 µM; in the assay with HLA-A*30:02 (setting [8]), 11500 nM; with HLA-A*32:01 (setting [8]), at least 33600 nM.

As for APCKVPIEI, in the assay with HLA-B*51:01 (setting [4]), the equilibrium dissociation constant (Kd) is at least 77400 nM.

SIKNLVSQF: the Kd with HLA-B*15:01 (setting [3]) is 24.7 nM. As to KTFFWFNEV, the Kd in the assay with HLA-A*01:01 (setting [9]) is 11500 nM; in the assay with HLA-A*26:01 (setting [9]) it was 12.5 µM; with HLA-A*29:02 (setting [9]), 18.6 µM; with HLA-A*30:01 (setting [9]), 0.0932 µM; with HLA-A*30:02 (setting [9]), 59.2 nM; with HLA-A*32:01 (setting [9]), 7.26 nM. Regarding AFGLYKSIN, in the assay with HLA-A*02:01 [2] (setting [3]), the half-maximal inhibitory concentration (IC50) is at least 245 µM. In the case of HINALEYII, the Kd with HLA-A*32:01 (setting [3]) came to 631 nM. Regarding GQTGIQRTVF, the Kd with HLA-B*15:01 (setting [4]) was 5.95 nM. Consider PQLSAIALG, for which the 50% inhibitory concentration (IC50) in the assay with HLA-A*02:01 [2] (setting [5]) is at least 423 µM.

For the sequence ITEMLQKEY, the Kd with HLA-A*01:01 (setting [8]) is 18.8 nM; with HLA-A*26:01 (setting [8]), at least 77.9 µM; with HLA-A*29:02 (setting [8]), 7.65 µM; with HLA-A*30:01 (setting [8]) it was 4.75 µM; in the assay with HLA-A*30:02 (setting [8]) it was 172 nM; with HLA-A*32:01 (setting [8]), at least 77800 nM. On to DPFPQSNSPI, for which, in the assay with HLA-B*51:01 (setting [4]), the Kd stood at 733 nM. As for NVINYFNRM, the dissociation constant Kd with HLA-B*15:01 (setting [3]) amounted to 960 nM. Take EDMLSVWNRV: the dissociation constant (Kd) in the assay with HLA-A*32:01 (setting [7]) is at least 34400 nM.

(Values after the Immune Epitope Database (IEDB).)
